Experimental data as given in paper PMC12749308 (Nature Communications, 2025).
Where two headings read alike, the source gives them in different places.

Assays:
[1] = target: T1, hPLD3 luminal domain H201A/H416A (hPLD3_HA) (Homo sapiens, UniProt Q8IV08 61-490, H201A;H416A); assay: EMSA
T1 sequence: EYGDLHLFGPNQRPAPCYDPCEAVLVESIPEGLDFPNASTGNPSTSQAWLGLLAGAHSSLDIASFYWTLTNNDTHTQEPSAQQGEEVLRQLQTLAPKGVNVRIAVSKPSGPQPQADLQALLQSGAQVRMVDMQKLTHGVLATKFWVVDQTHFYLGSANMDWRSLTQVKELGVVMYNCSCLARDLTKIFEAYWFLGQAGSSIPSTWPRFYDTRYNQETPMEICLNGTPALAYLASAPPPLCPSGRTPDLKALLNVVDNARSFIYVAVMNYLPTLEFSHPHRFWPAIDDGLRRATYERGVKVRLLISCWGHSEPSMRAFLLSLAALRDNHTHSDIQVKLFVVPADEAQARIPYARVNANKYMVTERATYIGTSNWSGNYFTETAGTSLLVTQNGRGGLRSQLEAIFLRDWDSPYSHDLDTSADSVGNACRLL

[2] = target: the molecule itself; assay: cryo-EM structure
[3] = target: the molecule itself; assay: cryo-EM structure; remark: listed apart in the source

ACGTTCCTGATGCTAAGTATGCACTTCATCGTCAAGCAATGCTATGCAT (ssDNA) [Substrate-I (49 nt)]
binding result [1]: binds

B1: human PLD4 luminal domain, wild type (domain or fragment, UniProt Q96BZ4 91-506, looked up)
chain: RDSCQLVLVESIPQDLPSAAGSPSAQPLGQAWLQLLDTAQESVHVASYYWSLTGPDIGVNDSSSQLGEALLQKLQQLLGRNISLAVATSSPTLARTSTDLQVLAARGAHVRQVPMGRLTRGVLHSKFWVVDGRHIYMGSANMDWRSLTQVKELGAVIYNCSHLAQDLEKTFQTYWVLGVPKAVLPKTWPQNFSSHFNRFQPFHGLFDGVPTTAYFSASPPALCPQGRTRDLEALLAVMGSAQEFIYASVMEYFPTTRFSHPPRYWPVLDNALRAAAFGKGVRVRLLVGCGLNTDPTMFPYLRSLQALSNPAANVSVDVKVFIVPVGNHSNIPFSRVNHSKFMVTEKAAYIGTSNWSEDYFSSTAGVGLVVTQSPGAQPAGATVQEQLRQLFERDWSSRYAVGLDGQAPGQDCVWQG
modifications: six N-linked glycans observed in the cryo-EM structure
stoichiometry N [2]: 4

B2: human PLD3 luminal domain, wild type (domain or fragment, UniProt Q8IV08 61-490, looked up)
chain: EYGDLHLFGPNQRPAPCYDPCEAVLVESIPEGLDFPNASTGNPSTSQAWLGLLAGAHSSLDIASFYWTLTNNDTHTQEPSAQQGEEVLRQLQTLAPKGVNVRIAVSKPSGPQPQADLQALLQSGAQVRMVDMQKLTHGVLHTKFWVVDQTHFYLGSANMDWRSLTQVKELGVVMYNCSCLARDLTKIFEAYWFLGQAGSSIPSTWPRFYDTRYNQETPMEICLNGTPALAYLASAPPPLCPSGRTPDLKALLNVVDNARSFIYVAVMNYLPTLEFSHPHRFWPAIDDGLRRATYERGVKVRLLISCWGHSEPSMRAFLLSLAALRDNHTHSDIQVKLFVVPADEAQARIPYARVNHNKYMVTERATYIGTSNWSGNYFTETAGTSLLVTQNGRGGLRSQLEAIFLRDWDSPYSHDLDTSADSVGNACRLL
modifications: four N-linked glycans observed in the cryo-EM structure (all sites except Asn97)
stoichiometry N [3]: 2
